Experimental data reported in a protein production outcome set (Wang et al. 2014).

Test: label from the status in PepcDB records

| Sequence | protein production |
| --- | --- |
| RPFMQKRAQKALPHVSTGADALVGRKVLVTETIDPTTDKGRVAVDGDVWTARSLTGEVIEKGMRVEIVSYESIVLNVVVLGNDKQ | not failed |
| MNKRNWTAYYNSTKQNTLPRKSLLKAIANFDKEKINLSKSAIDLGCGAGIDVMELLRCGWSVIAIDSQLSAIDSLLSSAQELTCANKLKTIISSFEALDSLPKVNLINASFSLPFLKPVYFYKFWSVILKGLKPGGRFSGSFFGFNDFWNTRTDMTFLNREMICHLFSQFKIEYFQEEEKDEMDALGYYKHWHKFFIVAKKIALEHHHHHH | failed |
| MGEGALAPGLQLLLRACEQGDTDTARRLLEPGGEPVAGSEAGAEPAGPEAARAVEAGTPVPVDCSDEAGNSALQLAAAGGHEPLVRFLLRRGASVNSRNHYGWSALMQAARCGHASVAHLLLDHGADVNAQNRLGASVLTVASRGGHLGVVKLLLEAGATVDHRNPSGESTASGGSRDELLGITALMAAVQHGHEAVVRLLMEWGADPNHTARTVGWSPLMLAALLGKLSVVQQLVEKGANPDHLGVLEKTAFEVALDRKHRDLADYLDPLTTVRPKTDEEKRRPDIFHALKMGNFQLVKEIADEDPNHVNLVNGDGATPLMLAAVTGQLPLVQLLVEKHADMNKQDSVHGWTALMQATYHGNKEIVKYLLNQGADVTLRAKNGYTAFDLVMLLNDPDTELVRLLASVCMQVNKDRGGRPSHRPPLPHSKARQPWSIPMLPDDKGGLKSWWSRMSNRFRKLKLMQTLPRGLAANQPLPFSDEPELALDSTMRAPPQDRTNHLGPPEAAHAAKDSGPGNPRREKDDVLLTTMLRNGAPFPRLPSDKLKAVIPPFLPPSSFELWSSDRSRTCPNGKADPMKTVLPPRASRAHPVGCVGTDGAAGRPVKFPSISRSPTSPASSGNFNHSPHSSGGASGVGSMSRLGGELHNRSGGSVDSVLSQIAAQRKKAAGLCEQKPPCQQSSPVGPATGSSPPELPASLLGSGSGSSNVTSSSKKLDPGKRPPSGTSATSKSTSPTLTPSPSPKGHTAESSVSSSSSHRQSKSSGGSSSGTITDEDELTGILKKLSLEKYQPIFEEQEVDMEAFLTLTDGDLQELGIKTDGSRQQILAAISELNAGKGRERQILQETIHNFHSSFESSASNTRAPGNSPSMAGWVRPEETVSSRR | failed |
| MDHDKTGCQSPPEGPKLCTNNCGFFGSAATMNMCSKCHKDMLFQQEQGAKFASAVSGTSSSSNIIKETFTAALVDIETKSVEPMTVSVQPSSVQVVAEVVAPEEAAKPKGPSRCTTCNKRVGLTGFKCRCGSLFCGTHRYADVHDCSFNYHAAAQEAIAKANPVVKAEKLDKI | failed |
| MKEELKREYERIKDRISPEEFEELIEKKKEELGDIGFMDDLTIASTVVDDILKEKNTMLSEKPEHRMDTISKLEEGAETPVTGRVMKISSPRTFTTRKGREGKLANVIIADDTGELRAVFWTENIKLLKKFREGDVIRIKDVNIRGGFGGRKEAHLMPRSTVEVLDPEDYPEFPEYREEITPIGDLVEDDEVNVIARITGVSRVRTFERDGREGRFISLDIMDATGSTTYTLWNNDVNLVEELGLKEGDAVKILWAQPRRRDDKVTLTHTSLTRVVPGEYDVPEFREELVKIGDLHEMRNVTVMGLVTKVNDPVEFERNDGTTGSVKSIEIADDTGSARVTLWDEDTRIKINKGDIIRISGANVEFDDFNQSYRINTNFNTRITLNPESDGALLKVLEEYREQMRPMKISEILEMEDEGEEVDVVGRIFSLSDPREFEREDGTGIVRSMELADETGKIRISLWDEKAEKPMNIGDAVRIENARIRLGLYSVELSAGRTTRIVNPLPEDMEDLPSFEELEEMLYQTKKIADLEEDDRNIRIIARVVDLFEPREFQRGDGTPGLVRTAEFADDTGSIRASLWDDAAEKPLSIGDPVKIENPRVVFRDDMGGGRLETQHRKQFKD | failed |
| MSVQLKCDAVNCVYNRSHLCSAEEIEVQGGETTGGDATFCGTFSSKSLGNFVSSLGNMNYSGSLKQAVSAEPIMDPKVHCNAVNCTYNDQRYCHADQVEIRNEVSHTAEELEHHHHHH | not failed |
| AWKGEVLANNEAGQVTSIIYNPGDVITIVAAGWASYGPTQKWGPQGDREHPDQGLICHDAFCGALVMKIGNSGTIPVNTGLFRWVAPNNVQGAITLIYNDVPGTYGNNSGSFSVNIGKDQS | not failed |
| MSLANWYLDNESSRLSFTSTKNADIAEVHRFLVLHGKVDPKGLAEVEVETESISTGIPLRDERLREQVFQVHKFPVAQINAQLDMRPINNLAPGAQLELRLPLTVSLRGKSHSYNAELLATRLDERRFQVVTLEPLVIHAQDFDMVSDFNALRNAAGLSAVSLSVPVGAVLIFTAREGHHHHHH | not failed |
| DDLEVGKNIDESAYSGIYENNAYLRDGKSNLVSKVVELHGETYATTVKMGLSKTPNTATSAKVKIDAAYLETYNKAHNTDFALYPQDLVTFANEGILTVNANTKSAEVEMTIRAGEGLQEDKTYAIPVAISDQSSDITIKDEDAKHCIYLVKDMRNAGDAYKGEGVMQGYLFFEVNDVNPLNTLSFQLENGKLLWDVVVLFAANINYDAEAGRPRVQCNPNVQYLLDNNETLLQPLRRRGVKVLLGLLGNHDITGLAQLSEQGAKDFAREVAQYCKAYNLDGVNYDDEYSNSPDLSNPSLTNPSTAAAARLCYETKQAMPDKLVTVFDWGQMYGVATVDGVDAKEWIDIVVANYGSAAYPIGQMTKKQCSGISMEFNLGGGGSLSASKAQSMIDGGYGWFMGFAPSPAKYGSVFSRLQGGGEVLYGSNVAAPTIFYKKNDPTPYKYPDDL | not failed |
| MHTLNLGILAHVDAGKTSLTERLLHTVGVIDEIGSVDEGNTQTDSLALERQRGITIKSAVVSFAINDTTVNLIDTPGHPDFIAEVERVLSVLDGAVLVVSAVEGVQAQTRVLLRTLQRLRIPTLLFVNKIDRGGAGEERVLRAIAARLTPAIVPMGRAAGPGSRDARFIPYEAHDPGFGARLLDVLTEHDEELLAAYVKDTVSYGRLRTALVEQTRQALVHPVFFGSATTGAGVPELIAGIKELLPAAEGDPDGPVSGTVFKVERGPAGEKIAYARLFSGTVRTRDRLLFRDGEEGKVTAISVFDQGSAVREASVAAGRIGKLWGLAEIRIGDTFGEVPKAAEPSRHFSPPTLETVVVPGGRSDGGALHLALTQLAEQDPLINMRQDEIRREISLSLYGEVQKEVIQATLADAFGLDVTFRETTPICVERPVGTGAAVEFNGKGPHPFLATVGLRVEAAPVGSGVEFRLEVELGAMPYAFFKAVEDTVRETLGQGIHGWRVTDCTVTMTHSGYSPRQSHAHQGFDKSMSSTGADFRGLTPLVLMDALRQAGTRVHEPLHRFGLEAPADTLGAVLPVLAGLRAVVRTTRMREAVCVLEGLVPAAHVHELGQVLPGLTRGEGELETAFDHYAPVAGGTVPNRPRTDHNPLDRKEYLLNVTRRVGT | failed |
| MKIIENYKGLPKSIYFLFLVQVINRLGDFVFPFLSLLLTQKLKFSMATTGTIVMIASVVGVPASFIGGKIADKSSRKLTYILGQSFAAIVILICGFINIPNLTVALLIASSFFNGFVRPTISAMVADLLPASKRQMGSSLLYLGINFGVAVGPIIAGFLFNNYLSLLFIIDALTSFIAVIIVLILIPDTKAVKHVGEDRIEEKEEKGNLLQILLKRPFVICFFGVDMIYSLAYRQCSFSMPIMMNKVFGYSGSSKYGFLMSVNALTVVALTIFVMHVTKRFRTLTNMAFSGLFYAVGFGMISIIGNSYLLFIISTVIWTMGEILGATNFGVYLANNSPRNCRARFGAVGELISSIGGAIGIFGAGKLIESYGINMIWRVIFIIVLLGAGLMLTLQYFQTKRVEQKIAHEI | failed |
| VDQLFFSTTDAQGRIQETNNTFVELSRYTEEELRNAAHNIIRHPFMPGGVFKIMWDKLQRGETFAGYVRNLAHSGETYDVFATVTPIPGTHD | failed |
| MSVEQLNQLNIEELIITLENVLKILKQYSKVSNSSITFKEFVDYWFEAYASTAVKPSTQKRYRQLLKPALRAIGNKPLNKVKPLDIQNIYIALAGTQSNCTILKLHRLLHEIFKHAQMWEYISDNPVKKVVPPTPEKKVFDVWDVETAKRFLEIIKDEPIYYPALIALHTGMRAGEILSLKWCDVNFETRVISIVKSERKNRGLKTVNLKTKTSKRAVYMNDILYKELKNLYEITKPKPDDFVCPRLPTGNLTVNYLSRKFKKLVKKHNFPLIRFHDLRHTFATLMLSLGVNTKIVAEILGHSDIKLTADTYSHVLPTMQEEAMKEFVKLWK | failed |
| MNTTKRILILLLLALITGCAMHTTRNPSFLEGKRLIAEGRLEEGLGKLEQAAREEPDDREVGATLARERDTIIGQILFEADNARLAGNLDQAEQNYQRVLNIRASSERAREGLDAVDLERRHIVLVNQAKEALAHGDVDGAEKIVRGVLADNPMQSEARQLIKALSEQIARAEMSELSLITEFSKPITMEFRDTSLKTMFELISRTAGINFVFDRNVQQEATASIFVRDNSIEDVLKLMLLTNQLAYKVLNSNTLLIYPDTPAKQKDYQELVVRSFHVANTDVKQMVAMIRGLVKARDIYVNEKLNLFVIRDTLEMIRLVERLVAINDFPDPEVMLDVVVLEVKRDSTLDLGPNMPTSVTFSAVPGIGTPAQAAADSVVKMSMIKNTGFEGLRSFTISNQARIDFGRTLTNADVLANPRIRVKSREKAKIHIGNKEPVFTVTNTANVGSAASATYIDVGLKFEVEPVVRTNNEVTLKALLEVSSNLGEKRSGSGENAATAIVIGTRTAETVLELRDGETQVLAGLIQDDLSRVRSGIAGLTDIPVLGDIFSKQVRKHNKTEIILLITPHIVRNVIQPNHFESEFYSGTASAAGKLPVTIRKTAPRSLAMESSNSASDGGYMSLGRARSAGLFGAAPDLFEEAVTQAREASPSLTLRVPESVAGGREFTATVRLVTQDPMLSGELNLTYDPDTLELVDGGEKSGMRSLKLGRDQSTGMTAVLRFKVISTNATSTEIALQNLQVRDETGQPVEVNLPPAASIRIQ | failed |
| MAQKTLLIITDGIGYRKDSDHNAFFHAKKPTYDLMFKTLPYSLIDTHGLSVGLPKGQMGNSEVGHMCIGAGRVLYQDLVKISLSLQNDELKNNPAFLNTIQKSPVVHLMGLMSDGGVHSHIEHFIALALECEKSHKKVCLHLITDGRDVAPKSALTYLKQMQNICNESIQIATISGRFYAMDRDKRFERIELAYHSLMGLNHTPLSPSEYIQSQYDKNITDEFIMPACFKNYCGMQDDESFIFINFRNDRAREIVSALGQKQFSGFKRQVFKKLHIATMTPYDNTFPYPVLFPKESVQNTLAEVVSQHNLTQSHIAETEKYAHVTFFINGGVETPFKNENRVLIQSPKVTTYDLKPEMSAKEVTLAVLEQMKLGTDLIIVNFANGDMVGHTGNFEASVKAVEAVDACLGEILSLAKKLDYAMLLTSDHGNCERMKDENQNPLTNHTAGSVYCFVLGDGVKSIKNGALNNIASSVLKLMGLKAPATMDEPLF | failed |
| MQVSVETTQGLGRRVTITIAADSIETAVKSELVNVAKKVRIDGFRKGKVPMNIVAQRYGASVRQDVLGDLMSRNFIDAIIKEKINPAGAPTYVPGEYKLGEDFTYSVEFEVYPEVELQGLEAIEVEKPIVEVTDADVDGMLDTLRKQQATWKEKDGAVEAEDRVTIDFTGSVDGEEFEGGKASDFVLAMGQGRMIPGFEDGIKGHKAGEEFTIDVTFPEEYHAENLKGKAAKFAINLKKVEERELPELTAEFIKRFGVEDGSVEGLRAEVRKNMERELKSAIRNRVKSQAIEGLVKANDIDVPAALIDSEIDVLRRQAAQRFGGNEKQALELPRELFEEQAKRRVVVGLLLGEVIRTNELKADEERVKGLIEEMASAYEDPKEVIEFYSKNKELMDNMRNVALEEQAVEAVLAKAKVTEKETTFNELMNQQA | not failed |
| MKIQDYTKQMVDEKSFIDMAYTLLNDKGETMNLYDIIDEFRALGDYEYEEIENRVVQFYTDLNTDGRFLNVGENLWGLRDWYSVDDIEEKIAPTIQKFDILDADDEEDQNLKLLGEDEMDDDDDIPAQTDDQEELNDPEDEQVEEEINHSDIVIEEDEDELDEDEEVFEDEEDFND | not failed |
